Legend:
[1] = target: […]-para-nitroanilide (TQ6-pNA) peptide substrate; experiment: ITC + other: steady-state kinetics; details: both partners purified
[2] = target: the molecule itself; experiment: AUC

B1: SARS-CoV main protease (M^pro), wild type (enzyme)
chain: SGFRKMAFPSGKVEGCMVQVTCGTTTLNGLWLDDTVYCPRHVICTAEDMLNPNYEDLLIRKSNHSFLVQAGNVQLRVIGHSMQNCLLRLKVDTSNPKTPKYKFVRIQPGQTFSVLACYNGSPSGVYQCAMRPNHTIKGSFLNGSCGSVGFNIDYDCVSFCYMHHMELPTGVHAGTDLEGKFYGPFVDRQTAQAAGTDTTITLNVLAWLYAAVINGDRWFLNRFTTTLNDFNLVAMKYNYEPLTQDHVDILGPLSAQTGIAVLDMCAALKELLQNGMNGRTILGSTILEDEFTPFDVVRQCSGVTFQ
koff [1]: 0.084 s⁻¹
kon [1]: 2460 M⁻¹ s⁻¹
Kd [2]: 700 ± 20 nM
